Data published in patent US20140186897A1, “TRANSFORMANT OF YEAST OF GENUS SCHIZOSACCHAROMYCES, METHOD FOR PRODUCING SAME, METHOD FOR PRODUCING ß-GLUCOSIDASE, AND CELLULOSE DEGRADATION METHOD” (ASAHI GLASS COMPANY, LIMITED, priority 2011, published 2014).

How the values were obtained:
[1] = glucosidase activity measurement of culture supernatant (pNPG); type: biochemical; settings: Example 9, Table 11
Protocol: A mutant strain which formed a large colony was selected from P3AaBGL1 mutant strain library. Then, thus selected strain and P3ASP3326 strain as the original strain were cultivated in 150 μl/well (96-well plate) of YES medium at 30° C. for two days. 50 μl of each culture supernatant was diluted by 150 μl of 50 mM acetate buffer (pH 5.0) to prepare a diluted enzyme sample. Then, the enzymatic activity of the sample was measured in accordance with the following method.
To 10 μl of 20 mM p-nitrophenyl-β-D-glucoside (hereinafter abbreviated as pNPG), 10 μl of 1M sodium acetate buffer solution (pH 5.0) and 130 μl of water were added, and then 50 μl of the diluted enzyme sample was introduced for reacting them at 37° C. for 10 minutes. 100 μl of the reaction mixture was mixed with 100 μl of 2% sodium carbonate solution to terminate reaction, and then the amount of free p-nitrophenol was colorimetrically measured at a wavelength of 450 nm.
The amount of enzyme that produces 1 μmol of p-nitrophenol per minute was defined as 1 U.
The P3AaBGL1 mutant strain obtained as above was cultivated in YES medium at 30° C. for one day. 100 μl of the culture broth was inoculated on 5 ml of YPD medium (1% of yeast extract, 2% of peptone, and 2% of glucose), followed by cultivation at 30° C. for two days. Thereafter, the culture broth was centrifuged to obtain a culture supernatant.
(§1) By using the above-obtained culture supernatant of the P3AaBGL1 mutant strain, a diluted enzyme sample was prepared, and then the enzymatic activity of the sample was measured in accordance with the above-described activity measurement method. Further, the glucose inhibition at a final glucose concentration of from 0.1 to 200 mM and the thermostability at a warming temperature of from 50 to 75° C. were measured for evaluation.

[2] = glucose inhibition measurement (residual glucosidase activity in the presence of glucose); type: biochemical
Protocol: To 10 μl of 20 mM pNPG, 10 μl of 1M sodium acetate buffer solution (pH 5.0) and from 4 to 10 μl of 1M glucose (final concentration of from 20 to 50 mM) were added, followed by addition of water up to the total volume of 150 μl. Thereafter, 50 μl of the diluted enzyme sample was introduced for reacting them at 37° C. for 10 minutes. As a control, a glucose-free reaction mixture was used, and then the reaction was carried out at 37° C. for 10 minutes, in the same manner. 100 μl of each reaction mixture was mixed with 100 μl of 2% sodium carbonate solution to terminate reaction, and then the amount of liberated p-nitrophenol was colorimetrically measured at a wavelength of 450 nm.
The ratio (%) of the colorimetric value of each reaction mixture to the colorimetric value of the control sample (glucose-free sample) was defined as the residual activity after glucose inhibition.
as §1
(§2) 11F10 strain, 22A12 strain, 28C02 strain, 29F09 strain and mutBGL1 strain selected from the mutant strains, and ASP3326 strain as the original strain were cultivated in a Sakaguchi flask containing 100 ml of YPD medium at 30° C. for two days. To each of the culture supernatants obtained by cultivating them, […] was added until 80% saturation was reached, thereby to carry out ammonium sulfate precipitation at 4° C. for 2 hours. Thereafter, centrifugation was carried out to collect pellets, and the pellets were dissolved in 10 ml of 10 mM citrate phosphate buffer solution (pH 7.0). Then, desalting and concentration were carried out by using an ultrafiltration membrane having MWCO of 100,000, thereby to recover 1 ml of a crude liquid. Thus recovered crude liquid was purified by using Hitrap QXL column to collect a fraction of a peak of pNPG activity, thereby to obtain a purified sample. Elution was carried out by using a 10 mM citrate phosphate buffer solution (pH 7.0) and a NaCl concentration gradient (0 to 1M).
(§3) In the same manner as in Example 1, the residual glucosidase activities after glucose inhibition at a glucose concentration of from 0.1 to 200 mM were measured. Further, the residual glucosidase activities after heat treatment at a temperature of from 50 to 75° C. for 10 minutes were measured.

[3] = thermostability measurement (residual glucosidase activity after heat treatment); type: physicochemical
Protocol: To 10 μl of 20 mM pNPG, 10 μl of 1M sodium acetate buffer solution (pH 5.0) and 130 μl of water were added, and then 50 μl of a diluted enzyme sample preliminarily heat-treated at […] for 10 minutes was introduced for reacting them at 37° C. for 10 minutes. As a control, a diluted enzyme sample which was not subjected to the heat treatment was used, and then the reaction was carried out at 37° C. for 10 minutes, in the same manner. 100 μl of each reaction mixture was mixed with 100 μl of 2% sodium carbonate solution to terminate reaction, and then the amount of liberated p-nitrophenol was colorimetrically measured at a wavelength of 450 nm.
The ratio (%) of the colorimetric value of each reaction mixture to the colorimetric value of the control sample (untreated sample) was defined as the residual activity after heat treatment.
as §1, §2, §3

[4] = compared with P3AaBGL1 / β-glucosidase without the mutation

B1: R629L: modified-type P3AaBGL1 with R629L only (mutation 6) (protein)
chain: MKITAVIALLFSLAAASPIPVADPGVVSVSLKKRADELAFSPPFYPSPWANGQGEWAEAYQRAVAIVSQMTLDEKVNLTTGTGWELEKCVGQTGGVPRLNIGGMCLQDSPLGIRDSDYNSAFPAGVNVAATWDKNLAYLRGQAMGQEFSDKGIDVQLGPAAGPLGRSPDGGRNWEGFSPDPALTGVLFAETIKGIQDAGVVATAKHYILNEQEHFRQVAEAAGYGFNISDTISSNVDDKTIHEMYLWPFADAVRAGVGAIMCSYNQINNSYGCQNSYTLNKLLKAELGFQGFVMSDWGAHHSGVGSALAGLDMSMPGDITFDSATSFWGTNLTIAVLNGTVPQWRVDDMAVRIMAAYYKVGRDRLYQPPNFSSWTRDEYGFKYFYPQEGPYEKVNHFVNVQRNHSEVIRKLGADSTVLLKNNNALPLTGKERKVAILGEDAGSNSYGANGCSDRGCDNGTLAMAWGSGTAEFPYLVTPEQAIQAEVLKHKGSVYAITDNWALSQVETLAKQASVSLVFVNSDAGEGYISVDGNEGDRNNLTLWKNGDNLIKAAANNCNNTIVVIHSVGPVLVDEWYDHPNVTAILWAGLPGQESGNSLADVLYGRVNPGAKSPFTWGKTREAYGDYLVLELNNGNGAPQDDFSEGVFIDYRGFDKRNETPIYEFGHGLSYTTFNYSGLHIQVLNASSNAQVATETGAAPTFGQVGNASDYVYPEGLTRISKFIYPWLNSTDLKASSGDPYYGVDTAEHVPEGATDGSPQPVLPAGGGSGGNPRLYDELIRVSVTVKNTGRVAGDAVPQLYVSLGGPNEPKVVLRKFDRLTLKPSEETVWTTTLTRRDLSNWDVAAQDWVITSYPKKVHVGSSSRQLPLHAALPKVQ
Activity [1]: 526 mU/ml | Residual glucosidase activity, Glc 0 mM ([2]; Example 9, glucose 0 mM (reference set to 100)): 100% | Residual glucosidase activity, Glc 1 mM ([2]; Example 9, glucose 1 mM): 91.5% | Residual glucosidase activity, Glc 5 mM ([2]; Example 9, glucose 5 mM): 67.4% | Residual glucosidase activity, Glc 10 mM ([2]; Example 9, glucose 10 mM): 53.9% | Residual glucosidase activity, Glc 20 mM ([2]; Example 9, glucose 20 mM): 37.6% | Residual glucosidase activity, Glc 50 mM ([2]; Example 9, glucose 50 mM): 19.6% | Residual glucosidase activity, Glc 100 mM ([2]; Example 9, glucose 100 mM): 11.1% | Residual glucosidase activity, Glc 200 mM ([2]; Example 9, glucose 200 mM): 6.9% | resistance to glucose inhibition (in words) [2, 4]: without decreasing | Residual glucosidase activity, Temp 50° C. ([3]; Example 9, 10 minutes at 50° C.): 98.7% | Residual glucosidase activity, Temp 55° C. ([3]; Example 9, 10 minutes at 55° C.): 93.7% | Residual glucosidase activity, Temp 60° C. ([3]; Example 9, 10 minutes at 60° C.): 90.7% | Residual glucosidase activity, Temp 65° C. ([3]; Example 9, 10 minutes at 65° C.): 71.8% | Residual glucosidase activity, Temp 70° C. ([3]; Example 9, 10 minutes at 70° C.): 26.5% | Residual glucosidase activity, Temp 73° C. ([3]; Example 9, 10 minutes at 73° C.): 3.5% | Residual glucosidase activity, Temp 75° C. ([3]; Example 9, 10 minutes at 75° C.): 1.5% | Residual glucosidase activity, Untreated ([3]; Example 9, no heat treatment (reference set to 100)): 100% | thermostability (in words) [3, 4]: can be improved
